In article PMC9708914 (iScience, 2022):

Tests used:
cross-linking = biological target: the molecule itself; assay: cross-linking
crystal structure = biological target: the molecule itself; assay: crystal structure

B1: MgtE ΔN T336C/L421C (TtMgtE 130-450, T336C/L421C) (domain or fragment, Thermus thermophilus, UniProt Q5SMG8 130-450, looked up)
chain: EEDEAGGLMTPEYVAVREGMTVEEVLRFLRRAAPDAETIYYIYVVDEKGRLKGVLSLRDLIVADPRTRVAEIMNPKVVYVRTDTDQEEVARLMADYDFTVLPVVDEEGRLVGIVTVDDVLDVLEAEATEDIHKLGAVDVPDLVYSEAGPVALWLARVRWLVILILTGMVTSSILQGFESVLEAVTALAFYVPVLLGTGGNTGNQSACLIIRALATRDLDLRDWRRVFLKEMGVGLLLGLTLSFLLVGKVYWDGHPLLLPVVGVSLVLIVFFANLVGAMLPFLLRRLGVDPACVSNPLVATLSDVTGLLIYLSVARLLLEAV
cross-linking
  stoichiometry N: 2

B2: Thermus thermophilus MgtE transmembrane (TM) domain (TtMgtE 268-450) (domain or fragment, UniProt Q5SMG8 268-450, looked up)
chain: VPDLVYSEAGPVALWLARVRWLVILILTGMVTSSILQGFESVLEAVTALAFYVPVLLGTGGNTGNQSATLIIRALATRDLDLRDWRRVFLKEMGVGLLLGLTLSFLLVGKVYWDGHPLLLPVVGVSLVLIVFFANLVGAMLPFLLRRLGVDPALVSNPLVATLSDVTGLLIYLSVARLLLEAV
Crystal structure
  binding result: binds
